# Article PMC9017247
# Experiments:
# [1] = biological target: recombinant SARS-CoV-2 spike protein (SARS-CoV-2) (UniProt P0DTC2); experiment: ITC; MicroCal ITC200; 50 uM rGRFT injected (2 uL, 120 s intervals) into the cell with 280 uL of 1 uM spike protein; 1x PBS, pH 7.4
# [2] = biological target: recombinant SARS-CoV-2 spike protein (SARS-CoV-2) (UniProt P0DTC2); experiment: QCM-D; spike protein (400 ug/mL) immobilised by EDC/NHS on an 11-MUA carboxylated gold sensor, ethanolamine-blocked; 0.5-10 uM rGRFT flowed in turn at 20 uL/min, 1x PBS
substance,measurement,setting,value
recombinant griffithsin lectin protein (rGRFT) (from UniProt P84801 1-121) (natural protein),Kd,[1],9.9 µM
same,stoichiometry N (rGRFT per spike),[1],6
same,Kd,[2],1.6 µM
